Experimental data from US20240043515A1 (Chugai, published 2024).
Substitutions are numbered along the chain they refer to. Names and notes keep the numbering of the source.

T1: hFcγRIIaH on Jurkat effector cells (human, UniProt P12318 34-317)
T1 sequence (looked up): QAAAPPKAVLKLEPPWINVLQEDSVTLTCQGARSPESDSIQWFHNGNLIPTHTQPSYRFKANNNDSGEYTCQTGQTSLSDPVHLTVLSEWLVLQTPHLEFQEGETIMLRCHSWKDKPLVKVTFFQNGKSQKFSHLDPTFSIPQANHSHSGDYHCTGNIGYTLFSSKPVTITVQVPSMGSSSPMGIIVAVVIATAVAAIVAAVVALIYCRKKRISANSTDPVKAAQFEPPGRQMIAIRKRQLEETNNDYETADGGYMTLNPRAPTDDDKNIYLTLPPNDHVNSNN

T2: human FcγRIIa H extracellular domain (human, UniProt P12318 34-217)
T2 construct: extracellular domain; also called hFcγR IIa H; FcγRIIa allotype H131
T2 sequence (looked up): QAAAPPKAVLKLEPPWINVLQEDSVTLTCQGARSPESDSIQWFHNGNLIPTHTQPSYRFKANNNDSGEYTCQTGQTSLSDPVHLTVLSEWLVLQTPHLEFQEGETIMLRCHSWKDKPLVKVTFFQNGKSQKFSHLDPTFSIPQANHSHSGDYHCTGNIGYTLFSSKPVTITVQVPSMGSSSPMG

T3: human FcγRIIa R extracellular domain (human, UniProt P12318 34-217)
T3 construct: extracellular domain; also called hFcγR IIa R; FcγRIIa allotype R131
T3 sequence (looked up): T2 sequence (looked up) with H134R

T4: human FcγRIIb extracellular domain (human, UniProt P31994 43-217)
T4 construct: extracellular domain; also called hFcγR IIb
T4 sequence (looked up): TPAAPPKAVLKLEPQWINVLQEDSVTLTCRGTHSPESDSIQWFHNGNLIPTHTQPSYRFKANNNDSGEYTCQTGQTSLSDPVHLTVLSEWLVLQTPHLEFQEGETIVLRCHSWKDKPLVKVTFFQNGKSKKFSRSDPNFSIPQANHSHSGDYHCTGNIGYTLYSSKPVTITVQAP

B1: EGL-ART8 (H240-Kn461/L73-k0//H240-H1443/L73-k0) (antibody, human IgG1, kappa)
heavy 1: QDQLVQSGAEVKKPGASVKVSCKASGFNIKDTYIQWVRQAPGQGLEWMGRIDPLRKQTKYREKFEGRVTITADTSTNTAYMELSSLRSEDTAVYYCVRSGREFDYWGQGTLVTVSSASTKGPSVFPLAPSSKSTSGGTAALGCLVKDYFPEPVTVSWNSGALTSGVHTFPAVLQSSGLYSLSSVVTVPSSSLGTQTYICNVNHKPSNTKVDKKVEPKSCDKTHTCPPCPAPEFQWGPMVFLFPPKPKDVLMISRTPEVTCVVVDVSDEEPEVKFNWYVDGVEVHNAKTKPREEQYNATYRVVSVLPVLHQDWLNGKEYKCKVSNDALPAPEEKTISKAKGQPREPQVCTLPPSRDELTKNQVSLWCLVKGFYPSDIAVEWESNGQPENNYKTTPPVLDSDGSFFLYSKLTVDKSRWQQGNVFSCSVMHEALHNHYTQKSLSLSP
heavy 2: QDQLVQSGAEVKKPGASVKVSCKASGFNIKDTYIQWVRQAPGQGLEWMGRIDPLRKQTKYREKFEGRVTITADTSTNTAYMELSSLRSEDTAVYYCVRSGREFDYWGQGTLVTVSSASTKGPSVFPLAPSSKSTSGGTAALGCLVKDYFPEPVTVSWNSGALTSGVHTFPAVLQSSGLYSLSSVVTVPSSSLGTQTYICNVNHKPSNTKVDKKVEPKSCDKTHTCPPCPAPELLAGPSVFLFPPKPKDVLMISRTPEVTCVVVDVSHEEPEVKFNWYVDGVEVHNAKTKPREEQYNATYRVVSVLPVLHQDWLNGKEYKCKVSNDALPAPEEETISKAKGQPREPQVYTLPPSRCELTKNQVSLSCAVKGFYPSDIAVEWESNGQPENNYKTTPPVLDSDGSFFLVSKLTVDKSRWQQGNVFSCSVMHEALHNHYTQKSLSLSP
light: DIQMTQSPSSLSASVGDRVTITCRASQDIHKYIAWYQQKPGQAPRLLIQYTSTLQPGVPSRFSGSGSGTDYTFTISSLQPEDIATYYCLQYEQLRTFGGGTKVEIKRTVAAPSVFIFPPSDEQLKSGTASVVCLLNNFYPREAKVQWKVDNALQSGNSQESVTEQDSKDSTYSLSSTLTLSKADYEKHKVYACEVTHQGLSSPVTKSFNRGEC
notes: Kn461: L234F/L235Q/G236W/S239M/T250V/H268D/D270E/S298A/T307P/K326D/I332E + Y349C/T366W; H1443: G236A/T250V/D270E/S298A/T307P/K326D/I332E/K334E + D356C/T366S/L368A/Y407V
B2: EGL-afucosyl (H240-G1d/L73-k_glycomab) (antibody)
heavy: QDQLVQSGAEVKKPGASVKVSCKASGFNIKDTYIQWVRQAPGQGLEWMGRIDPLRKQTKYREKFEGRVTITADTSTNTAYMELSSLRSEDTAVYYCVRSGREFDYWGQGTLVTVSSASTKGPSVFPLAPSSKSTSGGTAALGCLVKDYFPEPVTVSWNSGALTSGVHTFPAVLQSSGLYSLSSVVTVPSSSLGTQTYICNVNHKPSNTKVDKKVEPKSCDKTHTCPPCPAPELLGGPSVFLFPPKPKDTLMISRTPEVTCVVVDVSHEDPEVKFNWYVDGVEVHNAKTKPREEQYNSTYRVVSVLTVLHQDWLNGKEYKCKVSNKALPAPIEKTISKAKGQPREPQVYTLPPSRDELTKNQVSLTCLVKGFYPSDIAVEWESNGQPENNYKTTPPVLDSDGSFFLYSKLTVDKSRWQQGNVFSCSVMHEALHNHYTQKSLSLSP
light: B1 light
modifications: afucosylated (fucose-deficient sugar chain) ; Afucosylated (fucose-deficient) N-glycan at Asn297 (EU) of each heavy chain; the letters cannot carry this.
notes: Same heavy chain as EGL-G1d, produced as a fucose-deficient antibody; also called afucosylated antibody
B3: EGL-GASDIE (H240-Kn037/L73-k0//H240-H1036/L73-k0) (antibody, human IgG1, kappa)
heavy 1: B1 heavy 1 with F233L, Q234L, W235A, M238D, V249T, D267H, E269D, A297S, P306T, D325K
heavy 2: B1 heavy 2 with S238D, V249T, E269D, A297S, P306T, D325K, E333K
light: B1 light
notes: G236A/S239D/I332E in both heavy chains; Kn037 with Y349C/T366W, H1036 with D356C/T366S/L368A/Y407V

Legend:
[1] = molecular target: hFcγRIIIaV on Jurkat effector cells (human, UniProt P08637 17-254); experiment: cell-based or functional assay
[2] = molecular target: T1, hFcγRIIaH on Jurkat effector cells; experiment: cell-based or functional assay
[3] = molecular target: T5, human FcγRIa extracellular domain (human, UniProt P12314 16-292); experiment: SPR; KD of G1d divided by KD of this antibody
T5 construct: extracellular domain; also called hFcγR Ia

[4] = molecular target: T2, human FcγRIIa H extracellular domain; experiment: SPR; KD of G1d divided by KD of this antibody
[5] = molecular target: T3, human FcγRIIa R extracellular domain; experiment: SPR; KD of G1d divided by KD of this antibody
[6] = molecular target: T4, human FcγRIIb extracellular domain; experiment: SPR; KD of G1d divided by KD of this antibody
[7] = molecular target: T6, human FcγRIIIa F extracellular domain (human, UniProt P08637 17-208); experiment: SPR; KD of G1d divided by KD of this antibody
T6 construct: extracellular domain; also called hFcγR IIIa F; FcγRIIIa allotype F158

[8] = molecular target: T7, human FcγRIIIa V extracellular domain (human, UniProt P08637 17-208); experiment: SPR; KD of G1d divided by KD of this antibody
T7 construct: extracellular domain; also called hFcγR IIIa V; FcγRIIIa allotype V158

[9] = molecular target: T2, human FcγRIIa H extracellular domain; experiment: SPR; KD for hFcγRIIb divided by KD for this FcγR
[10] = molecular target: T3, human FcγRIIa R extracellular domain; experiment: SPR; KD for hFcγRIIb divided by KD for this FcγR
[11] = molecular target: T6, human FcγRIIIa F extracellular domain; experiment: SPR; KD for hFcγRIIb divided by KD for this FcγR
[12] = molecular target: T7, human FcγRIIIa V extracellular domain; experiment: SPR; KD for hFcγRIIb divided by KD for this FcγR
[13] = molecular target: T7, human FcγRIIIa V extracellular domain; experiment: SPR (Biacore 8K+), antibody captured, FcγR as analyte, 25 C, 1:1 Langmuir model
Description: (§1) The extracellular domains of FcγRs were produced by the method described in WO2014104165. The interaction between the produced antibodies and human FcγRs was analyzed using Biacore 8K+ by the method below. For the running buffer, 50 mM Na-Phosphate, 150 mM NaCl, and 0.05% Tween20 (pH 7.4) was used, and measurement was performed at 25° C. The sensor chip used was a Series S SA chip (GE Healthcare) onto which CaptureSelect Human Fab-kappa Kinetics Biotin Conjugate (Thermo Fisher Scientific) was immobilized. An antibody of interest was captured onto this chip, and each FcγR diluted with the running buffer was allowed to interact with it. The chip was regenerated using 10 mM Glycine-HCl (pH 1.5), and repeatedly used to capture antibodies and perform measurement. The dissociation constants KD (mol/L) of each antibody for FcγRs were calculated using Biacore Insight Evaluation Software, with a steady state affinity model for the dissociation constant for FcγRIIb and a 1:1 Langmuir binding model for the dissociation constants for the other FcγRs (Table 2).

[14] = molecular target: T4, human FcγRIIb extracellular domain; experiment: SPR (Biacore 8K+), antibody captured, FcγR as analyte, 25 C, steady state affinity model
Description: as §1

T6 sequence (P08637 17-208): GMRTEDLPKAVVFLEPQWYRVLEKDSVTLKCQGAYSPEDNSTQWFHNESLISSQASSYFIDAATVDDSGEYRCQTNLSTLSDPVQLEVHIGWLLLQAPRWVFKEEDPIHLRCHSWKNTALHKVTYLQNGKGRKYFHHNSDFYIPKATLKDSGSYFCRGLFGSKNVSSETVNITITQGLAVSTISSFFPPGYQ
T7 sequence (P08637 17-208 F176V): as the sequence (P08637 17-208) above, with F160V counted along it
T5 sequence (P12314 16-292): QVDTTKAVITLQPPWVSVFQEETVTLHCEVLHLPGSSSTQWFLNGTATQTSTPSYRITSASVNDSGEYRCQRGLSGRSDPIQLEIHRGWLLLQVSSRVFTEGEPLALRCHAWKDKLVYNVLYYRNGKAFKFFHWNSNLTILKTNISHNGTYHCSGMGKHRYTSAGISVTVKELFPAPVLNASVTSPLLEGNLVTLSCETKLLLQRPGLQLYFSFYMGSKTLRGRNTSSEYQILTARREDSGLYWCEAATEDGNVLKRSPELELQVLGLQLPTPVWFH
Chain of hFcγRIIIaV on Jurkat effector cells (P08637 17-254, form in doubt): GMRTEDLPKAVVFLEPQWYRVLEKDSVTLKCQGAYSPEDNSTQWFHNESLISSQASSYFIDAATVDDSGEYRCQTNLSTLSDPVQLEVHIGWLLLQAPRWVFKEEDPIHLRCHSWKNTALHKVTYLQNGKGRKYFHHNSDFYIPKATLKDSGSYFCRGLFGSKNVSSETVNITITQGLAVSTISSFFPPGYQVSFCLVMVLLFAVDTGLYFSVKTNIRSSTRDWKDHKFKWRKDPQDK

Binder	EC50 of reporter gene induction (ADCC Reporter Bioassay, Hepa1-6/hEREG target cells) [1]	EC50 of reporter gene induction (ADCP Reporter Bioassay, Hepa1-6/hEREG target cells) [2]	Relative value to KD between G1d and hFcgRs [3]	Relative value to KD between G1d and hFcgRs [4]	Relative value to KD between G1d and hFcgRs [5]	Relative value to KD between G1d and hFcgRs [6]	Relative value to KD between G1d and hFcgRs [7]	Relative value to KD between G1d and hFcgRs [8]	A/I ratio (KD for FcγRIIb divided by KD for each FcγR) [9]	A/I ratio (KD for FcγRIIb divided by KD for each FcγR) [10]	A/I ratio (KD for FcγRIIb divided by KD for each FcγR) [11]	A/I ratio (KD for FcγRIIb divided by KD for each FcγR) [12]	Kd [13]	Kd [14]
B1	1.07 ng/mL	17.1 ng/mL	3.2 times	15 times	13.2 times	2.8 times	1970 times	695 times	47.2 ratio	28.1 ratio	2350 ratio	6850 ratio	0.516 nM	–
B2	–	–	–	1.1 times	–	1.8 times	–	–	–	–	–	–	19 nM	5650 nM
B3	3.7 ng/mL	14.9 ng/mL	6.2 times	16.4 times	24.7 times	8 times	44.7 times	15.1 times	18.2 ratio	18.6 ratio	18.9 ratio	52.6 ratio	–	–
